Source: patent US20020193304

Biological target: CD87 (UniProt Q03405)
UniProt Q03405, sequence (Q03405 whole entry, looked up): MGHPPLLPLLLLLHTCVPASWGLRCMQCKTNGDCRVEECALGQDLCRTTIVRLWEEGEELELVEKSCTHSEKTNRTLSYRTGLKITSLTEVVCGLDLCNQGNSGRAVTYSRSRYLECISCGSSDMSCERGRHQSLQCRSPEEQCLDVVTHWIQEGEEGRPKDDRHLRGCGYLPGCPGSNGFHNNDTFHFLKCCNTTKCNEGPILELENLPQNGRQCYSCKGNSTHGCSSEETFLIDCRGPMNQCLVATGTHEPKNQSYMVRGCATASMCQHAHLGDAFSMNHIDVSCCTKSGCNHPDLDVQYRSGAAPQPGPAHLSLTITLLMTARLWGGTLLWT

high molecular weight urokinase-type plasminogen activator (HMW-uPA)
anti-HIV activity (p17) of gel filtration fractions containing HMW-uPA (Nos. 15-18), co-culture assay: also were found to have anti-HIV activity (p17), thought that was weaker than ATF
